Our source for the Kd and koff values is article PMC6402988.

For the assay, the target named is ADI-15946 (human). In words: BLI. Background: BLI is a label-free optical method that tracks binding on a fibre tip over time.

Take “EBOV GP cleaved (EBOV GPCL) (from UniProt Q05320 33-650) (domain or fragment)”: the Kd was less than 1 pM and the off-rate constant (koff) is less than 1e-07 s⁻¹.

For orientation: Kd means the equilibrium constant for the complex coming apart. Low values mean higher affinity, high ones lower affinity. The koff is a measure of how fast the partners let go of each other. Low readings indicate slow dissociation, high ones fast dissociation.
